Results on seven molecules are retold here after US20230106715A1 (BIOSION, published 2023).

The target in assay [1] is T1, human Siglec15 on human-siglec15-2D3-1E1 cells (human, UniProt Q6ZMC9 20-328).
T1 construct: whole, on cells; Transfected HEK-293 cells; also called cell surface human Siglec15
T1 sequence (looked up): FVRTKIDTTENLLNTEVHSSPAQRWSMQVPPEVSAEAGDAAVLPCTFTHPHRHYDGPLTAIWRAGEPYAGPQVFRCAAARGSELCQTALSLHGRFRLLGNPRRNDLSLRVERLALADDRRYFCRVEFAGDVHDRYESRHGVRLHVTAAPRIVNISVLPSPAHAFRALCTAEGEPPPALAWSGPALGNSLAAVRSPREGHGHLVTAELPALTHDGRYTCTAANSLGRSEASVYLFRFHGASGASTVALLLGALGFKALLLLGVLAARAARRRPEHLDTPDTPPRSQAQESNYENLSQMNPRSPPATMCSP
The assay can be described thus: cell based binding FACS on human-siglec15-2D3-1E1 cells. On the procedure: The binding activities of the anti-Siglec15 antibodies to cell surface Siglec15 were tested by flow cytometry (FACS), using in-house prepared human-siglec15-2D3-1E1 cells expressing human Siglec15 (amino acid residues Met1-Pro328 of uniprot #Q6ZMC9) on cell membranes. The human-siglec15-2D3-1E1 cells were prepared by transfecting HEK-293 cells (ATCC #CRL-1573) with pCMV-T-P plasmids inserted with human Siglec15 coding sequence between EcoRI and XbaI sites, following the instruction of lipofectamine 3000 transfection reagent (Thermo Fisher). The human-siglec15-2D3-1E1 cells were harvested from cell culture flasks, washed twice and re-suspended in phosphate buffered saline (PBS) containing 2% v/v Fetal Bovine Serum (FACS buffer). 2×10⁵ cells per well in 96 well-plates were incubated in 100 μL serially diluted anti-Siglec15 antibodies or controls (starting at 66.67 nM, 5-fold serial dilution) in FACS buffer for 40 minutes on ice. […] Following a 40-minute incubation at 4° C. in dark, cells were washed three times and re-suspended in FACS buffer. Fluorescence was measured using a Becton Dickinson FACS Canto II-HTS equipment. Data was analyzed using Graphpad Prism software and EC₅₀ values were reported.

Assay [2] addresses T2, human Siglec15-Fc protein (human).
T2 construct: In house made; also called recombinant human Siglec15 protein with human IgG1 Fc at the C-terminus
Briefly: competitive ELISA: coated human Siglec15-Fc, blocked ligand biotin-labeled human LRRC4C-Fc. On the procedure: Serially diluted anti-Siglec15 antibodies or the controls (starting at 66.67 nM with a 5-fold serial dilution) in PBST with 2.5% w/v non-fatty milk were added to the Siglec15-Fc bound plates, 100 μl per well, and incubated with the human Siglec15-Fc protein at 37° C. for 40 minutes. Plates were washed 4 times again using wash buffer, then added and incubated for 40 minutes at 37° C. with 100 μl/well 290 ng/ml biotin-labeled human LRRC4C-Fc protein (prepared in-house with SEQ ID NO: 23). Plates were washed again using wash buffer. Thereafter, the plates were added with 100 μl/well streptavidin conjugated HRP (1:5000 dilution in PBST buffer, Jackson Immunoresearch, Cat #016-030-084) and incubated for 40 minutes at 37° C. Plates were washed again using wash buffer. Finally, TMB was added and the reaction was stopped using 1M H₂SO₄, and the absorbance of each well was read on a microplate reader using dual wavelength mode with 450 nm for TMB and 630 nm as the reference wavelength, then the OD (450-630) values were plotted against antibody concentration. Data was analyzed using Graphpad Prism software and IC₅₀ values were reported.
(§1) The mouse anti-Siglec15 antibodies of the disclosure were also tested in ligand blocking ELISA and benchmark blocking ELISA following the protocols described above.

Assay [3] deals with T2, human Siglec15-Fc protein. Briefly: competitive ELISA: biotin-labeled human Siglec15-Fc in solution, competitor coated benchmark. On the procedure: The abilities of the anti-Siglec15 antibodies of the disclosure to block benchmark-human Siglec15 binding were measured in a competitive ELISA assay. Briefly, the benchmark was coated on 96-well micro plates at 2 μg/mL in PBS, 100 μl per well, and incubated for 2 hours at 37° C. Then plates were washed once with wash buffer, and blocked with 5% w/v non-fatty milk in PBST overnight at 4° C. The next day, the anti-Siglec15 antibodies of the disclosure or controls were diluted with biotin labeled human Siglec15-Fc protein (prepared in-house with SEQ ID NO: 19, 37 ng/ml in PBST with 2.5% w/v non-fatty milk), starting at 80 nM with a 4-fold serial dilution, and incubated at room temperature for 40 minutes. After plate washing 4 times, the antibody/Siglec15-Fc mixtures were added to benchmark coated plates, 100 μl per well. After incubation at 37° C. for 40 minutes, plates were washed 4 times again using wash buffer. Then the plates were added and incubated with 100 μl/well streptavidin conjugated HRP for 40 minutes at 37° C. Plates were washed again using wash buffer. Finally, TMB was added and the reaction was stopped using 1M H₂SO₄, and the absorbance of each well was read on a microplate reader using dual wavelength mode with 450 nm for TMB and 630 nm as the reference wavelength, then the OD (450-630) values were plotted against antibody concentration. Data was analyzed using Graphpad Prism software and IC₅₀ values were reported.
as §1

T2 sequence (chain, as listed by the source limits assumed): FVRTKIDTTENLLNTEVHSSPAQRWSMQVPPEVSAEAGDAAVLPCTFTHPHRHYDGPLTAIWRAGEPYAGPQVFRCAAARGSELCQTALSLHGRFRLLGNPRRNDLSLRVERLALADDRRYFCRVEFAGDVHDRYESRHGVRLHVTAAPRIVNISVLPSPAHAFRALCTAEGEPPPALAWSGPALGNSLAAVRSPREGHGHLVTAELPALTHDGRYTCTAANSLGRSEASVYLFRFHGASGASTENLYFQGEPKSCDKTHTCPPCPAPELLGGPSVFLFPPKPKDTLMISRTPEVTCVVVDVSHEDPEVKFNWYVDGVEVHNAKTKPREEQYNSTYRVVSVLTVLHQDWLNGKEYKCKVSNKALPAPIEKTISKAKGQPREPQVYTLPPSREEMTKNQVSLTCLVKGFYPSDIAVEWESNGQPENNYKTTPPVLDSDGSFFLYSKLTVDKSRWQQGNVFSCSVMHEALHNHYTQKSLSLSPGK

B1: anti-Siglec15 benchmark (ch5G12) (antibody, human IgG1, kappa, V domains shown)
VH: QVQLQQPGAELVKPGASVKMSCKASGYTFTSYWITWVIQRPGQGLEWIGDIYCGSDTMHYNEKFKNKATLTVDTSSSTAYMQLSSLTSEDSAVYYCARWWDYGSSYDYFDYWGQGTTLTVSS
VL: DIKMTQSPSSMYASLGERVTITCKASQDINSYLSWFQQKPGKSPKTLIYRANRLVDGVPSRFSGSGSGQDYSLTISSLEYEDMGIYYCLQYDEFPYTFGGGTKLEIKR
notes: ch5G12 (US 20190202912A1); also called BM; Siglec15-ch5G9
In the case of B1, in assay [1], the EC50 was found to be 0.877 nM. Further, the IC50 in assay [2] came out at 1.57 nM; in assay [3], 0.447 nM.

B2: A2A5C7E8 (antibody, V domains shown)
VH: EVQLVQSGAEVKKPGESLRISCKGSGYSFTTYWISWVRQMPGKGLEWMGLIDPSDSYTNYSPSFQGHVTISTDKSISTAYLQWSSLKASDTAMYYCARGGYYGSEEDYWGQGTLVTVSS
VL: EIVLTQSPGTLSLSPGERATLSCRASQSVSSSRLAWFQQKSGQAPRLLIFDASSRATGIPDRFSGSGSGTDFTLTISRLEPEDFAVYYCQQYGSSPRTFGQGTKVEFK
notes: Fully human antibody from transgenic mouse hybridoma; also called A2A5C7E8-1
Regarding B2, the EC50 in assay [1] was 1.17 nM.

B3: A2A5C7E8-2 (antibody, human IgG1, kappa, V domains shown)
VH: EVQLVQSGAEVKKPGESLRISCKGSGYSFTTYWISWVRQMPGKGLEWMGLIDPSESYTNYSPSFQGHVTISTDKSISTAYLQWSSLKASDTAMYYCARGGYYGSEEDYWGQGTLVTVSS
VL: EIVLTQSPGTLSLSPGERATLSCRASQSVSSSRLAWFQQKSGQAPRLLIFDASSRATGIPDRFSGSGSGTDFTLTISRLEPEDFAVYYCQQYGSSPRTFGQGTKVEFKR
notes: Variant of A2A5C7E8 modified in VH CDR2 (X1 = E)
B3 showed a concentration giving a half-maximal response (EC50) in assay [1] of 1.47 nM.

B4: A2A5C7E8-3 (antibody, human IgG1, kappa, V domains shown)
VH: EVQLVQSGAEVKKPGESLRISCKGSGYSFTTYWISWVRQMPGKGLEWMGLIDPSDSYTNYSPSFKGHVTISTDKSISTAYLQWSSLKASDTAMYYCARGGYYGSEEDYWGQGTLVTVSS
VL: EIVLTQSPGTLSLSPGERATLSCRASQSVSSSRLAWFQQKSGQAPRLLIFDASSRATGIPDRFSGSGSGTDFTLTISRLEPEDFAVYYCQQYGSSPRTFGQGTKVEFKR
notes: Variant of A2A5C7E8 modified in VH CDR2 (X2 = K)
B4 came in with a 50% effective concentration (EC50) in assay [1] of 1.08 nM.

B5: B2D7H7A3C1 (antibody, V domains shown)
VH: QVQLQQSGAELVRPGTSVQMSCKAAGYTFTNYWIGWVKQRPGHGLEWVGDIHPGINYTNNNEKFRGKATLTADTSSNTAYMQLRGLTSDDSAIYYCARVDYDYDGSYIMDYWGQGTSVTVSS
VL: QIVLSQSPALLSASPGEKVTMTCRASSSVSYMYWYQQKPGSSPKPWIYATSNLTSGVPARFSGSGSGTSYSLTISRVEAEDAATYFCQQWNSKPWTFGGGSKLEIR
notes: Mouse monoclonal antibody from hybridoma; also called mouse B2D7H7A3C1
For the molecule B5, the half-maximal inhibitory concentration (IC50) was found to be 0.868 nM in assay [2] and 0.081 nM in assay [3].

B6: B2H2H1H7 (antibody, V domains shown)
VH: QVQLQQSGAELVRPGTSVQMSCKAAGYTFTNYWIGWVKQRPGHGLEWVGDIHPGINYTNNNEKFRGKATLTADTSSSTAYMQLRGLTSDDSAIYYCARVDYDYDGSYIMDYWGQGTSVTVSS
VL: QIILSQSPALLSASPGEKVTMTCRASSSVSYMYWYQQKPGSSPKPWIYATSNLTSGVPARFSGSGSGTSYSLTISRVEAEDAATYFCQQWNSKPWTFGGGSRLEIR
notes: Mouse monoclonal antibody from hybridoma; also called mouse B2H2H1H7; B2H2H1A7
Take B6: the values for the IC50 in assay [2] and in assay [3] were 1.04 nM and 0.0642 nM, respectively.

B7: B2G12H3E8 (antibody, V domains shown)
VH: QVQLKQSGAELVRPGTSVQMSCKAVGYTFTNYWIGWVKQRPGHGLEWVGDIHPGINYTNNNEKFRGKATLTADTSSSTAYMQLRGLTSDDSAIYYCARVDYDYDGSYIMDYWGQGTSVTVSS
VL: QIVLSQSPALLSASPGEKVTMTCRASSSVSYMYWYQQKPGSSPKPWIYATSNLTSGVPARFSGSGSGTSYSLTISRVEAEDAATYFCQQWNSKPWTFGGGSKLEIR
notes: Mouse monoclonal antibody from hybridoma; also called mouse B2G12H3E8
On to B7, for which the concentration for half-maximal inhibition (IC50) in assay [2] was determined as 0.954 nM; in assay [3] it was 0.063 nM.
